Results reported in article PMC7494861, “Characterization of the nucleotide-binding domain NsrF from the BceAB-type ABC-transporter NsrFP from the human pathogen Streptococcus agalactiae” (Scientific Reports, 2020).

Legend:
Assay in all cases: purified protein
Type in all cases: biochemical, Streptococcus agalactiae
Conditions in all cases: 100 mM HEPES pH 7, 10 mM Mg2+, 0 mM NaCl, 30 °C, cooperative
[1] = tested on: Nc1nc2c(ncn2[C@@H]2O[C@H](COP(=O)(O)OP(=O)(O)OP(=O)(O)O)[C@@H](O)[C@H]2O)c(=O)[nH]1
Description: (§1) malachite green phosphate release, Hill fit on SaNsrF (SaNsrFWT)

[2] = tested on: O=c1ccn([C@@H]2O[C@H](COP(=O)(O)OP(=O)(O)OP(=O)(O)O)[C@@H](O)[C@H]2O)c(=O)[nH]1
Description: as §1

[3] = tested on: Nc1ccn([C@@H]2O[C@H](COP(=O)(O)OP(=O)(O)OP(=O)(O)O)[C@@H](O)[C@H]2O)c(=O)n1
Description: as §1

## SaNsrF (SaNsrFWT) (Streptococcus agalactiae 2603V/R)
[1]
  K0.5: 0.69 ± 0.07 mM
  Vmax: 221.6 ± 11.1 nmol/min/mg
[2]
  K0.5: 0.90 ± 0.13 mM
  Vmax: 314.8 ± 23.4 nmol/min/mg
[3]
  K0.5: 1.23 ± 0.20 mM
  Vmax: 339.0 ± 30.4 nmol/min/mg
